Square brackets hold non-standard residues; d marks the D form. Ends that are not written are not given here. pY = N[C@@H](Cc1ccc(OP(=O)(O)O)cc1)C(=O)O; Lys(Me3) = C[N+](C)(C)CCCC[C@H](N)C(=O)O; pS = N[C@@H](COP(=O)(O)O)C(=O)O
Assays:
[1] = biological target: H3K9me3S10ph peptide (Homo sapiens) (UniProt P68431); conditions: cited from earlier work
[2] = biological target: H3K9me3 peptide (Homo sapiens) (UniProt P68431); conditions: cited from earlier work
[3] = biological target: Tudor domain of human PHF1 (aa 14–87) (human, UniProt O43189 14-87); test: NMR titration
[4] = biological target: T1, BRPF1 PWWP domain (aa 1064–1214) (UniProt P55201 1064-1214); test: NMR titration
T1 sequence (looked up): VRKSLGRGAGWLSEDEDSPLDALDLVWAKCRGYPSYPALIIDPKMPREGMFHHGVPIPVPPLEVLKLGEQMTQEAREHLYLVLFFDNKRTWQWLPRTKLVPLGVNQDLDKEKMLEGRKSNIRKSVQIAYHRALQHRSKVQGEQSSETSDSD

Tudor domain of human PHF1 (aa 14–87), sequence (O43189 14-87): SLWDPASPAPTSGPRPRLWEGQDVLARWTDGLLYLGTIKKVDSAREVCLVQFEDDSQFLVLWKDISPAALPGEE

Molecule: ATRX ADD (from UniProt P46100)
- Kd [1]: 0.19 µM
- Kd [2]: 0.11 µM

Molecule: KSAP[pS]TGGV[Lys(Me3)]KPHRYRPGT (peptide, UniProt P84243 28-46, looked up) [histone H3.3S31phK36me3 peptide (residues 27–45 of H3.3)]
- Kd [3]: 260 µM
- Kd [4]: 2300 µM

Molecule: KSAPSTGGV[Lys(Me3)]KPHR[pY]RPGT (peptide, UniProt P84243 28-46, looked up) [histone H3.3K36me3Y41ph peptide (residues 27–45 of H3.3)]
- Kd [3]: 480 µM
- Kd [4]: 1800 µM

Molecule: KSAPSTGGV[Lys(Me3)]KPHRYRPGT (peptide, UniProt P84243 28-46, looked up) [histone H3.3K36me3 peptide (residues 27–45 of H3.3)]
- Kd [3]: 37 µM
- Kd [4]: 3900 µM

— PMC4861070 (ACS chemical biology, 2016)
